Values joined by “and” are separate entries in the source; they are usually repeats but may differ in a detail not shown here. Identical values can stand only once.
How the values were obtained:
ECF15_524 = biological target: T1, ECF15_524
T1 chain: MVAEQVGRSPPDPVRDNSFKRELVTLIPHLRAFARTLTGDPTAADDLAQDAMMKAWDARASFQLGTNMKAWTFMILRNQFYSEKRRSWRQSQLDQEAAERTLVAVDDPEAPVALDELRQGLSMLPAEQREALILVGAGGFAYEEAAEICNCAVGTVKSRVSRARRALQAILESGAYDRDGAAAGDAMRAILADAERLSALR

ECF28_1088 = biological target: T2, ECF28_1088
T2 chain: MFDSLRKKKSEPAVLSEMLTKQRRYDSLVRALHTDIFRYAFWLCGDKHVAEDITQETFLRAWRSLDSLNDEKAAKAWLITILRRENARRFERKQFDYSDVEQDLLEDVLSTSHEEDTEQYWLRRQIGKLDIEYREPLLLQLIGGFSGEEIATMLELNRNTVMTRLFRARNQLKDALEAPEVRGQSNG

ECF02_2817 = biological target: T3, ECF02_2817
T3 chain: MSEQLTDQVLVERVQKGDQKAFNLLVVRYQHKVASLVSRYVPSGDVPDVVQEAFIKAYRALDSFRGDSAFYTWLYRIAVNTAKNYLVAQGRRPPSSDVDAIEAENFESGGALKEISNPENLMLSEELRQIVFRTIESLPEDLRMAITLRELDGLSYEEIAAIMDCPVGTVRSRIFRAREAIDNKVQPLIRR

ECF20_992 = biological target: T4, ECF20_992
T4 chain: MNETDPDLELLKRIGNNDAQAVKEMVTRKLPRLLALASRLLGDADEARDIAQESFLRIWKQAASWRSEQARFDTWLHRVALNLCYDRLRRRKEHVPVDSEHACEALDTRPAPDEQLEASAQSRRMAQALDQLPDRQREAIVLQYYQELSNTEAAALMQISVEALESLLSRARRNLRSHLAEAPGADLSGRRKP

ECF01_3473 = biological target: T5, ECF01_3473
T5 chain: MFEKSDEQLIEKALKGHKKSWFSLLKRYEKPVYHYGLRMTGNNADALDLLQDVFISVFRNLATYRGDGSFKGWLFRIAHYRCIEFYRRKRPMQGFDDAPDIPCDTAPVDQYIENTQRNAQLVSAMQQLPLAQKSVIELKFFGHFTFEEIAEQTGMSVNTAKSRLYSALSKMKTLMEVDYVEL

ECF25_1645 = biological target: T6, ECF25_1645
T6 chain: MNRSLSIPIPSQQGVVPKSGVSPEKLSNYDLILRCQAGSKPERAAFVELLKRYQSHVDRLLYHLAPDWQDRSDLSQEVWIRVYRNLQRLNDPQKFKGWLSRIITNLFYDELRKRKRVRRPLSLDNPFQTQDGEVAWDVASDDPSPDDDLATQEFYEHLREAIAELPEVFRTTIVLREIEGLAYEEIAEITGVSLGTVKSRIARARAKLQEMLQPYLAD

ECF25_1643 = biological target: T7, ECF25_1643
T7 chain: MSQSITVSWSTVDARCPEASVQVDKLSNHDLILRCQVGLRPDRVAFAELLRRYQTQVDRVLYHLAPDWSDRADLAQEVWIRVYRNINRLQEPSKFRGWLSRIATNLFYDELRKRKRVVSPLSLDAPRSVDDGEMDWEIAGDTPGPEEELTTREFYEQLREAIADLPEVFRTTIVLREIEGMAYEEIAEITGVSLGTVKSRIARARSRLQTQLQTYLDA

ECF16_3622 = biological target: T8, ECF16_3622
T8 chain: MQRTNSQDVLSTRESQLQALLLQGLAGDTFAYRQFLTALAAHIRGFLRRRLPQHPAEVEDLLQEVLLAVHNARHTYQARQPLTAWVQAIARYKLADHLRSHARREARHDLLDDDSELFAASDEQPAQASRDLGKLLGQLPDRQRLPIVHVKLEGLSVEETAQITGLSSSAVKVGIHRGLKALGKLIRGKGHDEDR

ECF17_1458 = biological target: T9, ECF17_1458
T9 chain: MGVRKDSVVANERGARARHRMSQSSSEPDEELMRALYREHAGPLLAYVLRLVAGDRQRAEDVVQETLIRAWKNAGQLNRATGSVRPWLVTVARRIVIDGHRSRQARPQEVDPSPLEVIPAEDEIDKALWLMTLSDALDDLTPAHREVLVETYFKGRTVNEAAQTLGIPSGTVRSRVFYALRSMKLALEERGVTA

ECF31_34 = biological target: T10, ECF31_34
T10 chain: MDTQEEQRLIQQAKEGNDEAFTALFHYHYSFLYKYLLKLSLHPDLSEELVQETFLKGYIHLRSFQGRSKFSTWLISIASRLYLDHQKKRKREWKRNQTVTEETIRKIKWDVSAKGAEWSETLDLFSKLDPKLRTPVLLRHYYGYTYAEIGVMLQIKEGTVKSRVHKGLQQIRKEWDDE

ECF22_4450 = biological target: T11, ECF22_4450
T11 chain: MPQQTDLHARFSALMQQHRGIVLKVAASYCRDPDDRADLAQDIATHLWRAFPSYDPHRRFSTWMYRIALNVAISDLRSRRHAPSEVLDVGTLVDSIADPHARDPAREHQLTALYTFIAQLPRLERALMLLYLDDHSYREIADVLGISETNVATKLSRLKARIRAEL

ECF17_1691 = biological target: T12, ECF17_1691
T12 chain: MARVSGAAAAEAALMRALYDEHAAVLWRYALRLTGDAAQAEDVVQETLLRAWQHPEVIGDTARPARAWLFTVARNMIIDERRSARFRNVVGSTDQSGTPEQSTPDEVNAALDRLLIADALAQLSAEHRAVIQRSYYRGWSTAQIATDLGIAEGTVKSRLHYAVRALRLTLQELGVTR

ECF30_35 = biological target: T13, ECF30_35
T13 chain: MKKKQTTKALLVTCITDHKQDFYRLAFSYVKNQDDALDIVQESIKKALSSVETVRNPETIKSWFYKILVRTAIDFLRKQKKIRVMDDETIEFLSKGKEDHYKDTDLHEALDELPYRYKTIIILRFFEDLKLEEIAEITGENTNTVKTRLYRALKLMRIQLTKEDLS

ECF28_1040 = biological target: T14, ECF28_1040
T14 chain: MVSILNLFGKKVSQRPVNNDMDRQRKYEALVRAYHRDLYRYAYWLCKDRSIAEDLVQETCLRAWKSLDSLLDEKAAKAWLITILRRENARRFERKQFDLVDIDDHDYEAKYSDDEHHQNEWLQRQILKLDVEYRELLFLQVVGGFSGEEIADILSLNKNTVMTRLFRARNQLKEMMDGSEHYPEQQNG

B1: AS38_1322 (protein)
chain: MSDGNDARPDARDGHDPGSDARDGHDPGSHARDGHDPGAGPFDGHGPGSDAGDGDDAGPDARDGHGAPAGPAGREQRKHPHDTHDMHDTHDTHAGKGTVNHGPAAQGPDAPGADGPATDEAALRAMMQRAVREMEPSDGTLEHLRRAVPARRARKRQALVGAAAAALFLGTAVPALVHVSNATGAGADPSVAGNASQAQGGASQGKDPAGGQSGVAGTGDTPEDRDKADPKETPGGKEPGAATGAPPSGVPSASSPADVPACAPGSLGPAVASSAEPDSTGVVYGSFRVTNVSSDGCTVTGPGTVVTASLGAAEATRIGTARHAAGDAAAGLPDPSLETASLALAPGAAYEVQFAWVPSETCPTTGGTTGGGSGGPSPDPSPTADTTAAGGTSAGGGEAGPTTQLITEDGPAEGSVSVTYTPEGGSGSATATVSNACAGTVYWTGLLADSGSGA
fold repression (ECF15_524): 4.95
fold repression (ECF26_4464): 5.74
fold repression (ECF28_1088): 3.19
fold repression (ECF02_2817): 4.35
fold repression (ECF20_992): 3.28
fold repression (ECF01_3473): 4.19
fold repression (ECF25_1645): 3.94
fold repression (ECF25_1643): 4.12 and 4.01
fold repression (ECF16_3622): 4.56
fold repression (ECF17_1458): 4.75
fold repression (ECF31_34): 4.78
fold repression (ECF22_4450): 6.3
fold repression (ECF17_1691): 2.81
fold repression (ECF30_35): 3.08
fold repression (ECF28_1040): 2.92
